Patent US20210017289A1 (AbbVie / Abbott, published 2021)

Legend:
293s-huOX40-muCRDI = biological target: T1, 293s-huOX40-muCRDI; assay: flow cytometry on 293s transfectants, Hu3738 added at 2 µg/mL, Cy5 donkey anti-human IgG
T1 construct: cell-surface chimera, named on the sheet by its cell line; also called human OX40 chimera with murine CRDI replacing human CRDI
T1 receptor chain: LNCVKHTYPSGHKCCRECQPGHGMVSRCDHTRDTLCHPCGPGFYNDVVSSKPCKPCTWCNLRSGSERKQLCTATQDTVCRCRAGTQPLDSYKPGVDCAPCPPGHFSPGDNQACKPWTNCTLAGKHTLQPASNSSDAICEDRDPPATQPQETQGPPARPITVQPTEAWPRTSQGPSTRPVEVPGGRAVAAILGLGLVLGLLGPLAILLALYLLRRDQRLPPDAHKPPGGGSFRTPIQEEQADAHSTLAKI
Experimental: (§1) After plating cells, 50 μL of Hu3738 or isotype control antibody at 2 μg/mL were added to corresponding wells in duplicate for each cell line and allowed to incubate on ice for 30 minutes. Following incubation, 200 μL of Dulbecco's Phosphate Buffered Saline (DPBS) was added into each well and plates were spun down at 1000 rpm for three minutes. Supernatants from each well were removed and 50 μL of Cy5-Donkey anti-Human IgG (Jackson ImmunoResearch) secondary antibody was added at a 1:250 dilution, which was then incubated for 30 minutes on ice in the dark. Following the incubation period, 200 μL of DPBS was added prior to spinning down the plate at 1000 rpm for three minutes. Supernatants were removed and each well was re-suspended with 100 μL of DPBS+1% Formaldehyde. Samples were analyzed on the dual laser FACSCalibur flow cytometer (Becton Dickinson).

293s-huOX40-muCRDII+III = biological target: T2, 293s-huOX40-muCRDII+III; assay: as above
T2 construct: cell-surface chimera, named on the sheet by its cell line; also called human OX40 chimera with murine CRDII and CRDIII replacing human CRDII and CRDIII
T2 receptor chain: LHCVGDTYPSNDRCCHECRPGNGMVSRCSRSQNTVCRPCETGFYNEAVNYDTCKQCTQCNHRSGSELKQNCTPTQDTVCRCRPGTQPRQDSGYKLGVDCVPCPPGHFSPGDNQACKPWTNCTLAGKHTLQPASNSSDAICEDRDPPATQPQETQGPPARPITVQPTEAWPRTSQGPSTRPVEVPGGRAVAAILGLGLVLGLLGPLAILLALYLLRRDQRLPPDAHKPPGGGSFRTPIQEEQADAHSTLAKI
Experimental: as §1

293s-huOX40-muCRDIII = biological target: T3, 293s-huOX40-muCRDIII; assay: as above
T3 construct: cell-surface chimera, named on the sheet by its cell line; also called human OX40 chimera with murine CRDIII replacing human CRDIII
T3 receptor chain: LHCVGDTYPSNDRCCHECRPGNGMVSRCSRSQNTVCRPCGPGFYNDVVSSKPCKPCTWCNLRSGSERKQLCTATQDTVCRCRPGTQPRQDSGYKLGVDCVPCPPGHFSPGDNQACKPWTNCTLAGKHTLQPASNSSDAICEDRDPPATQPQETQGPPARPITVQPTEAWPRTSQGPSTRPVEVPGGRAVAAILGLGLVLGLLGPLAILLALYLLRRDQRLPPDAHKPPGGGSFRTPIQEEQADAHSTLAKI
Experimental: as §1

[1] = biological target: T4, recombinant soluble human OX40 ECD (residues 1-216) (human, UniProt P43489 29-216); assay: SPR (Biacore T200, 25 °C), antibody captured by anti-Fc, OX40 ECD as analyte
T4 construct: Purchased from Creative Biomart and further purified by gel filtration; also called recombinant extracellular domain of human OX40
T4 sequence: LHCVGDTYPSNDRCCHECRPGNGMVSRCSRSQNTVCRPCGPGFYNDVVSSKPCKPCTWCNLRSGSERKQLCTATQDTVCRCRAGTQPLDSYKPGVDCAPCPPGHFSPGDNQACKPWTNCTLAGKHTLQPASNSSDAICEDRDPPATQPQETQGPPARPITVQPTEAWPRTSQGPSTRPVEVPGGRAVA
Experimental: The binding kinetics of an anti-OX40 antibody to recombinant soluble OX40 ECD (extracellular domain) were determined by surface plasmon resonance-based measurements made on a Biacore T200 instrument (GE Healthcare) at 25° C. using an anti-Fc capture assay approach. Recombinant extracellular domains (ECDs) of human OX40 (residues 1-216) and rhesus macaque OX40 (residues 28-214) were purchased (Creative Biomart) and further purified by gel filtration using Superdex200 (GE Healthcare) in 10 mM 4-(2-hydroxyethyl)-1-piperazineethanesulfonic acid (HEPES), pH 7.4, 150 mM NaCl, 3 mM ethylenediaminetetraacetic acid (EDTA). Rhesus macaque (Macaca mulatta) OX40 is identical to cynomolgus monkey (Macaca fascicularis) OX40 (SEQ ID NO:2) at the amino acid level. Chip preparation and binding kinetic measurements were made in the assay buffer HBS-EP+(10 mM HEPES, pH 7.4, 150 mM NaCl, 3 mM EDTA, 0.05% Tween 20). For anti-Fc capture chip preparation, approximately 2000 Resonance Units (RU) of goat anti-human IgG Fc polyclonal antibody (Thermo Fisher Scientific Inc.), diluted to 25 μg/mL in 10 mM sodium acetate (pH 4.5), was directly immobilized across a CMS biosensor chip using a standard amine coupling kit according to manufacturer's instructions and procedures. Unreacted moieties on the biosensor surface were blocked with ethanolamine. For binding kinetics measurements each assay cycle consisted of the following steps: 1) capture of test anti-OX40 antibody on test surface only; 2) analyte injection (OX40 ECD or buffer only) over both reference and test surface, 240 μL at 80 μL/min, after which the dissociation was monitored for 900 seconds at 80 μL/min; 3) regeneration of capture surface by 10 mM Glycine-HCl, pH 1.5 injections over both reference and test surface. During the assay, all measurements were referenced against the capture surface alone (i.e., with no captured test antibody) and buffer-only injections were used for double referencing. OX40 injections ranged in concentration from 900 nM or 300 nM to 11.11 nM in a randomized 9- or 3-fold dilution series, respectively. Data were processed and fitted globally to a 1:1 binding model using Biacore T200 Evaluation software to determine the binding kinetic rate constants, kₐ (M⁻¹s⁻¹) and kd (s¹), and the equilibrium dissociation constant KD (M).

binding result (293s-huOX40-muCRDI): binds
binding result (293s-huOX40-muCRDII+III): no binding (tested: 2 µg/mL)
binding result (293s-huOX40-muCRDIII): binds
Kd [1]: 42 nM
koff [1]: 0.042 s⁻¹
B1: Hu3738 (antibody, V domains shown)
VH: EVQLVESGGGLVQPGGSLRLSCAASGFTFSRYGMSWVRQAPGKGLELVATINSNGGRTYYPDSVKGRFTISRDNAKNSLYLQMNSLRAEDTAVYYCAREGITTAYAMDYWGQGTTVTVSS
VL: DIVMTQSPDSLAVSLGERATINCKASQSVDYDGDSYMHWYQQKPGQPPKLLIYAASILESGVPDRFSGSGSGTDFTLTISSLQAEDVAVYYCQQSNEDPRTFGGGTKVEIKR
notes: Humanized antibody; also called exemplary anti-OX40 antibody Hu3738; Hu3738 VH.1b / Hu3738 VL.1
